From US20020115596

What was measured:
[1] = test system: (4-trans-L-Hyp)-Ala-Ser-Chg-Gln-Ser-Leu-Dox
[2] = test system: Succinyl-3,4-(diOH)PASChgQ-SL-DOX (3′)
[3] = test system: [N-Ac-(4-trans-L-Hyp)]-Ala-Ser-Chg-Gln-Ser-Leu-Dox
[4] = test system: Succinyl-(4-trans-L-Hyp)ASChgQ-SI-DOX (3′)
[5] = test system: PEG(2)-(4-trans-L-Hyp)ASChgQ-SThi-DOX (3′)
[6] = test system: Succinyl-(4-trans-L-Hyp)SSChgQ-SI-DOX (3′)
[7] = test system: Ac-(4-trans-L-Hyp)ASChgQ-SThi-acid
[8] = test system: Ac-(4-trans-L-Hyp)ASChgQ-SLacid
[9] = test system: Succinyl-(4-trans-L-Hyp)ASChgQ-SThi-DOX (3′)
[10] = test system: Glutaryl-(4-trans-L-Hyp)ASChgQ-SV-DOX (3′)
[11] = test system: PEG(2)-(4-trans-L-Hyp)ASChgQ-SL-DOX (3′)
[12] = test system: Glutaryl-(4-trans-L-Hyp)SSChgQ-SL-DOX (3′)
[13] = test system: Glutaryl-(4-trans-L-Hyp)ASChgQ-SI-DOX (3′)
[14] = test system: Ac-(4-trans-L-Hyp)ASChgQ-StBUAla-DOX (3′)
[15] = test system: Succinyl-(4-trans-L-Hyp)ASChgQ-SV-DOX (3′)
[16] = test system: PEG(2)-(4-trans-L-Hyp)SSChgQ-SL-DOX (3′)
[17] = test system: Succinyl-(4-trans-L-Hyp)ASChgQ-SAbu-DOX (3′)
[18] = test system: Malonyl-(4-trans-L-Hyp)ASChgQ-SL-DOX (3′)
[19] = test system: Glutaryl-(4-trans-L-Hyp)SSChgQ-SI-DOX (3′)
[20] = test system: PEG(4)-(4-trans-L-Hyp)-SSChgQ-SL-DOX (3′)
[21] = test system: [N-Glutaryl-(4-trans-L-Hyp)]-Ala-Ser-Chg-Gln-Ser-Leu-Dox

free prostate specific antigen (PSA)
time required for 50% cleavage of the oligopeptide [1]: 50% cleavage occurred in less than 2 hours for those conjugates
time required for 50% cleavage of the oligopeptide [2]: 50% cleavage occurred in less than 2 hours for those conjugates
Time to 50% Substrate Cleavage by PSA [3]: 20 min
time required for 50% cleavage of the oligopeptide [4]: 50% cleavage occurred in less than 2 hours for those conjugates
time required for 50% cleavage of the oligopeptide [5]: 50% cleavage occurred in less than 2 hours for those conjugates
time required for 50% cleavage of the oligopeptide [6]: 50% cleavage occurred in less than 2 hours for those conjugates
Time to 50% Substrate Cleavage by PSA (Ac-PASChgQ-SL-acid): 150 min
Time to 50% Substrate Cleavage by PSA [7]: 20 min
Time to 50% Substrate Cleavage by PSA [8]: 75 min
time required for 50% cleavage of the oligopeptide [9]: 50% cleavage occurred in less than 2 hours for those conjugates
time required for 50% cleavage of the oligopeptide [10]: 50% cleavage occurred in less than 2 hours for those conjugates
Time to 50% Substrate Cleavage by PSA [11]: 20 min
time required for 50% cleavage of the oligopeptide [12]: 50% cleavage occurred in less than 2 hours for those conjugates
time required for 50% cleavage of the oligopeptide [13]: 50% cleavage occurred in less than 2 hours for those conjugates
Time to 50% Substrate Cleavage by PSA [14]: 25 min
time required for 50% cleavage of the oligopeptide [15]: 50% cleavage occurred in less than 2 hours for those conjugates
time required for 50% cleavage of the oligopeptide [16]: 50% cleavage occurred in less than 2 hours for those conjugates
time required for 50% cleavage of the oligopeptide [17]: 50% cleavage occurred in less than 2 hours for those conjugates
time required for 50% cleavage of the oligopeptide [18]: 50% cleavage occurred in less than 2 hours for those conjugates
time required for 50% cleavage of the oligopeptide [19]: 50% cleavage occurred in less than 2 hours for those conjugates
time required for 50% cleavage of the oligopeptide [20]: 50% cleavage occurred in less than 2 hours for those conjugates
time required for 50% cleavage of the oligopeptide [21]: 50% cleavage occurred in less than 2 hours for those conjugates
Time to 50% Substrate Cleavage by PSA (Ac-PSSChgQ-SV-acid): 120 min
